Sequences and labels used below:
B1: pOA-12 (antibody, V domains shown)
VH: EEKLVESGGGLVQPGGSLTLSCVGSGFYFSNYEIVWVRQVRGGGLEWISYVSNGGARTSYALSVKGRFTIFRDNSRNTVDLHLNNLRIEDTARYYCVGGGQCLGDNCYSMALWGPGVEVFVSS
VL: QTVIQEPAMSVSLGGTVTLTCAFTSGSVTKTNYPSWFQQTPGQPPRQLIYHTDNQATGVPSRFSGAISGNKATFTITGAQAEDEADYFCCLYRGTTNVPFGGGTRLTVL
B2: pOA-15 (antibody, V domains shown)
VH: EEKLVESGGGLVQPGGSLRLSCVGSGFDLSDYGFSWVRQAPGKGLETMAFIDSRTSSFTTYTVIGVKGRFTIDNDNALQLNSLTSEDTARYFCARGRGSNGPKGLIGAYGMDLWGPGVEVVVSS
VL: QIVIQEPAMSVSLGGTVTLTCAYRSGSVTIKDGPNWYQQTPGQPPRQLIYNTNSRPTGVPSRFSGAISGNKATLTIAGAQAEDEAEYFCILYKNLEEVRFGDGTHLSVV
B3: pOA-16 (antibody, V domains shown)
VH: EEKLVESGGGLVQPGGSLTLSCVGSGFDFSLYNMIWVRQAPGKGLEWLAGIWESGVQDSYPESMKGRFTISRDNSQNTAYLKIHILGMEDTARYYCASGARCGEDRCIDLWGPGVEVVVSS
VL: QTVIQEPAMKVSPGGTVTLSCAFSSGSVTTSNYPSWFQHTPGQPPRLLMYRTSYRPTGVNSRFSGAISGNKATLTITGAQTTDEADYYCALFLNTITIPFGGGTHLTVL
B4: pOA-11 (antibody, V domains shown)
VH: EEKVVESGGGLVRPGESLRLSCVAEGVEFGRRSVRWVRQRPGKGLEFVIYMFNDAQSVDIADSVKGRFTISRDNSQNTAYLQMNRLTVEDTGRYFCLTANKWFGPGVEVVVSS
VL: AIVLTQTPLSLSVTPGESVSISCKSTKSVLDTDGTIVLNWYLQRPGQAPQRVIWSTFYRETGVPDRFTGSGSDTDFTLHISRVEAEDVGVYYCQQSRESTSFGAGTKLDLK
B5: pOA-4 (antibody, V domains shown)
VH: EEKLVESGGGLVRPGGSLRLSCVGSGFPWNTYSVRWVRQAPMKGLEFVAYIFKNDNDRDYASSVKGRFTISRDNSQNTAYLQMNNLRTEDTAHYYCLLANKYWGPGVEVVVSS
VL: AVVLTQTPVSLTVSVGEPASISCSSSQSLVEDDGSSVLNWYLQKPGQSPQRLIYSAVGRDTGVPDRFSGSGSGTEFTLKISRVEAEDAGVYYCQQSRFSTSFGAGSKLELK
B6: pOA-5 (antibody, V domains shown)
VH: EEKLVESGGGLVQPGGSLRLSCVGSGFIFSSGEITWVRQAPGKGLEWLAYTTIRGTSKYYADSVGGRFTISRDDSQNTATLQMNSLRIEDTARYYCARGKEDAVQGYYGKALDLWGPGIGVVVSS
VL: SSQLTQPPGVSVSLGGTATITCQGGSFGRYYSHWYKQRPGQAPILVIYDDAKRPAGIPDRFSGSTSGNSVTLTITGAQAEDEADYYCQSVDRSGNAKFGGGTHLTVL
B7: pOA-14 (antibody, V domains shown)
VH: EERLVESGGGLVQPGGSLKLSCVASGFDFQKYMINWVRQAPGKGLEWLALIWNDGKQRYYVESAHMRFTISRNNSQNTAYLEMNRLRVEETARYYCARGWGVEKMDLWGPGVEVAVSS
VL: QTVIQEPAMTVSLGGTVTLTCGFSSGSVTGTKYPNWYQQTPGQRPRLLIYSTKIRPTGVPSRFSGAISGNKATLTIMGAGAEDEADYYCSLNQNYKIIFGAGTHLIVL
B8: pOA-18 (antibody, V domains shown)
V domain 1: EEKLVESGGGLVQPGGSLRLSCVGSGFTFTNYEIVWVRQAPGRGPEWISYISNGGARKAYATSVRGRFSISRDNSRNTVDLQLNNLKIEDTGRYYCVGGGHCLGDNCYSLSLWGPGVELVVSS
V domain 2: QTVIQEPAMSVSPGGTVTLTCAFYSGSVTSENYPSWFQQTSGQPPREVIYMTDNRPTGVPDRFSGSISGNKATLTITGAQAEDEADYFCMLYKGTTNVPFGGGTHLTVL
B9: pOA-1 (antibody, V domains shown)
VH: EENVVESGGGLVRPGGSLRLSCIFSGFTFSTYSVRWVRQAPGKGLEFLTYIFKNVGDIDTADSVKGRFTISRDNSQNTAYLQMNSLRPEDTARYFCLVANKYWGPGVEVLVSS
VL: AIVLTQSPLSLSVSPGDSASISCRSSQSLVEDDGSSVLNWYLQRPGQSPQRLIYSAVGRDAGVPDRFSGSGSGTDFTLTISGVEAEDLGVYYCQQSKVSTTFGAGSKLDLK

For one assay, the target named is FMDV O/18074 146S antigen (Foot-and-mouth disease virus serotype …, strain).
Test: not given
Conditions: not given
Turning to B1, the binding result is “binds”.

With B2, the binding result was “binds”.

On to B3, for which the binding result is reported as “binds”.

B4: the binding result was “binds”.

Take B5: the binding result was “binds”.

For the molecule B6, the binding result is “binds”.

Take B7: the binding result is on record as “binds”.

Consider B8, for which the binding result is given as “binds”.

The next assay addresses T1, FMDV O/Tibet/99 146S antigen (Foot-and-mouth disease virus serotype …, strain).
T1 construct: copies: + + +
In words: BLI; RED96; […] (10 μg/ml) […]; 0.01 M PBS, 0.1% BSA, 0.02% Tween 20; global fit. The conditions noted are these: both partners purified. Background: BLI is a label-free optical method that tracks binding on a fibre tip over time.
As for B9, binding was put at a Kd of 0.04 nM.

These data come from publication PMC11508087 (PLOS Pathogens, 2024).
